# From article PMC10556033
# B1: mesoderm-specific transcript (MEST), also named PEG1: MEST N163Q (protein)
# parent chain: MVRRDRLRRMREWWVQVGLLAVPLLAAYLHIPPPQLSPALHSWKSSGKFFTYKGLRIFYQDSVGVVGSPEIVVLLHGFPTSSYDWYKIWEGLTLRFHRVIALDFLGFGFSDKPRPHHYSIFEQASIVEALLRHLGLQNRRINLLSHDYGDIVAQELLYRYKQNRSGRLTIKSLCLSNGGIFPETHRPLLLQKLLKDGGVLSPILTRLMNFFVFSRGLTPVFGPYTRPSESELWDMWAGIRNNDGNLVIDSLLQYINQRKKFRRRWVGALASVTIPIHFIYGPLDPVNPYPEFLELYRKTLPRSTVSILDDHISHYPQLEDPMGFLNAYMGFINSF
# Assay: eIF4E2 co-IP, 4E-T and GIGYF2 immunoblot
# Details: glycan lost; control: MEST cDNA (wild type)
protein,measurement,value
B1,other: eIF4E2-4E-T/GIGYF2 complex formation in cells,increases
